Experimental findings from article PMC10397247 are described below.

What all share (test): two-hybrid library CCNG1;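 note: natural log of median RNA to DNA barcode read ratio; higher means stronger binding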
For assay [1], the target named is T1, P12A-bN.
T1 chain: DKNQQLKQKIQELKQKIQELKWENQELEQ

The target in assay [2] is T2, P1A-bN.
T2 chain: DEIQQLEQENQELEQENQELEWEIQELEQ

Assay [3] has as its target T3, P2A-bN.
T3 chain: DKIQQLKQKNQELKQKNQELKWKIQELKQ

Assay [4] has as its target T4, P3A-bN.
T4 chain: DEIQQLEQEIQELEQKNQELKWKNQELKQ

For assay [5], the target named is T5, P4A-bN.
T5 chain: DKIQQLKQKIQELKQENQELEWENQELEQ

Assay [6] deals with T6, P5A-bN.
T6 chain: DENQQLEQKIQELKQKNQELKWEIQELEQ

In assay [7] the target is T7, P6A-bN.
T7 chain: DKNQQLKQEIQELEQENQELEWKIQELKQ

Assay [8] has as its target T8, P7A-bN.
T8 chain: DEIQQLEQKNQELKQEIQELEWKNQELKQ

Assay [9] addresses T9, P8A-bN.
T9 chain: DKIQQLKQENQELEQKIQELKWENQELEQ

For assay [10], the target named is T10, P9A-bN.
T10 chain: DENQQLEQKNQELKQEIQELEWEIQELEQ

Assay [11] has as its target T11, O10-bH.
T11 chain: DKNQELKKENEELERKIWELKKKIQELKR
The note with it: mean of both orientations.

Assay [12] addresses T12, O11-bH.
T12 chain: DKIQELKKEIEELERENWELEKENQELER

The target in assay [13] is T13, O12-bH.
T13 chain: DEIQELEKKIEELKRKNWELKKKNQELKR

The target in assay [14] is T14, O13-bH.
T14 chain: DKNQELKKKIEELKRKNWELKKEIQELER

Assay [15] concerns the target T15, O14-bH.
T15 chain: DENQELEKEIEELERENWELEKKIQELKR

Assay [16] addresses T16, O15-bH.
T16 chain: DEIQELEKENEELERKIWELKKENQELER

The target in assay [17] is T17, O16-bH.
T17 chain: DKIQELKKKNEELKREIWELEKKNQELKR

Assay [18] has as its target T18, O2-bH.
T18 chain: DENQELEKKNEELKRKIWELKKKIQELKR

For assay [19], the target named is T19, O3-bH.
T19 chain: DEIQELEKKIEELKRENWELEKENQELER

Assay [20] deals with T20, O4-bH.
T20 chain: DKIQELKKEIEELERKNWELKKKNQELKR

The target of assay [21] is T21, O5-bH.
T21 chain: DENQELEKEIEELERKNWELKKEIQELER

Assay [22] has as its target T22, O6-bH.
T22 chain: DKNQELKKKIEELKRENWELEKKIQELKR

Assay [23] has as its target T23, O7-bH.
T23 chain: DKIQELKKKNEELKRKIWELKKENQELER

The target of assay [24] is T24, O8-bH.
T24 chain: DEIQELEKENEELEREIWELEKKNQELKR

For assay [25], the target named is T25, O9-bH.
T25 chain: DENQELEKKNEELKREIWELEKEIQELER
The note with it: mean of both orientations.

The target in assay [26] is T26, 4H1387-bA.
T26 chain: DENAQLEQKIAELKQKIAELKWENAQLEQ

Assay [27] concerns the target T27, 4H1406-bA.
T27 chain: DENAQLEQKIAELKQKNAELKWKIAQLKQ

Assay [28] concerns the target T28, 4H3592-bA.
T28 chain: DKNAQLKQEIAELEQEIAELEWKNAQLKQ

Assay [29] has as its target T29, 4H3601-bA.
T29 chain: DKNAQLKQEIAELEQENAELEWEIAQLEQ

The target of assay [30] is T30, 4H3907-bA.
T30 chain: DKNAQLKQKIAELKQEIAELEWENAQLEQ

For assay [31], the target named is T31, 4H4038-bA.
T31 chain: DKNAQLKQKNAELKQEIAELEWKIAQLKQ

Assay [32] concerns the target T32, 4H2134-bH.
T32 chain: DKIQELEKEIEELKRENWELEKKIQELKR

The target of assay [33] is T33, 4H2143-bH.
T33 chain: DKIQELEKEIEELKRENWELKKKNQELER

Assay [34] addresses T34, 4H2223-bH.
T34 chain: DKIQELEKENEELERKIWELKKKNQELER

Assay [35] concerns the target T35, 4H2438-bH.
T35 chain: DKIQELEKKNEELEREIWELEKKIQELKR

Assay [36] deals with T36, 4H2473-bH.
T36 chain: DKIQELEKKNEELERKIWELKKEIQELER

The target of assay [37] is T37, 4H2503-bH.
T37 chain: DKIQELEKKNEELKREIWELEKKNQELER

The target of assay [38] is T38, 4H2588-bH.
T38 chain: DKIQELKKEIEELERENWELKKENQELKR

Assay [39] deals with T39, 4H2692-bH.
T39 chain: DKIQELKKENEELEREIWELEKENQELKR

In assay [40] the target is T40, 4H2717-bH.
T40 chain: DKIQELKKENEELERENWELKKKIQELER

The target in assay [41] is T41, 4H2839-bH.
T41 chain: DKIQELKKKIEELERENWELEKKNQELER

In assay [42] the target is T42, 4H2915-bH.
T42 chain: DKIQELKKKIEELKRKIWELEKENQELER

Assay [43] concerns the target T43, 4H3057-bH.
T43 chain: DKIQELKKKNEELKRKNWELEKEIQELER

The target in assay [44] is T44, 4H319-bH.
T44 chain: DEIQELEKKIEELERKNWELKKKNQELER

Assay [45] has as its target T45, 4H3277-bH.
T45 chain: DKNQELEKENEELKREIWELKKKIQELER

Assay [46] concerns the target T46, 4H348-bH.
T46 chain: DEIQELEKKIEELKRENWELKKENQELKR

Assay [47] addresses T47, 4H3858-bN.
T47 chain: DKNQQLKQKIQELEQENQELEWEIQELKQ

The target of assay [48] is T48, 4H40-bH.
T48 chain: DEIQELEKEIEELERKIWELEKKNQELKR

Assay [49] has as its target T49, 4H477-bH.
T49 chain: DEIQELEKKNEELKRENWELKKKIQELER

Assay [50] addresses T50, 4H492-bH.
T50 chain: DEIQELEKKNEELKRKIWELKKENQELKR

The target in assay [51] is T51, 4H741-bH.
T51 chain: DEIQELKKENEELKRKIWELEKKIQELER

Assay [52] concerns the target T52, O11-bP.
T52 chain: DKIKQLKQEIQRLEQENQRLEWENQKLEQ

Assay [53] concerns the target T53, O12-bP.
T53 chain: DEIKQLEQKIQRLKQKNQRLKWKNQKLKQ

For assay [54], the target named is T54, O13-bP.
T54 chain: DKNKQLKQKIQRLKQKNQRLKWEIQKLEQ

In assay [55] the target is T55, O14-bP.
T55 chain: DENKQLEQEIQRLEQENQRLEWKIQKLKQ

The target in assay [56] is T56, O15-bP.
T56 chain: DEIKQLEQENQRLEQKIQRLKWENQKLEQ

For assay [57], the target named is T57, O16-bP.
T57 chain: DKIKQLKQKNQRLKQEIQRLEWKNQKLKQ

The target in assay [58] is T58, O2-bP.
T58 chain: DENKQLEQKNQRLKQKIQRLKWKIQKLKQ

The target of assay [59] is T59, O3-bP.
T59 chain: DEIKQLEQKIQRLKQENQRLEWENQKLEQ

For assay [60], the target named is T60, O4-bP.
T60 chain: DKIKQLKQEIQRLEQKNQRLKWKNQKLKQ

For assay [61], the target named is T61, O5-bP.
T61 chain: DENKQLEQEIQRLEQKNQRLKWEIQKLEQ

Assay [62] has as its target T62, O6-bP.
T62 chain: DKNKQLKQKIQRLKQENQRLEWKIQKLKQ

In assay [63] the target is T63, O7-bP.
T63 chain: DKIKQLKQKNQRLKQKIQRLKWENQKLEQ

Assay [64] addresses T64, O8-bP.
T64 chain: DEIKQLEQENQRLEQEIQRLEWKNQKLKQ

In assay [65] the target is T65, O9-bP.
T65 chain: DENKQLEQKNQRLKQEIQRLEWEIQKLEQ

Turning to DKNQQLKQKIQELKQKIQELKWENQELEQ [P12A-bN], the interaction score was -0.758 in assay [1]; -1.71 in assay [2]; -0.94 in assay [3]; 1.82 in [4]; -0.221 in assay [5]; -1.2 in [6]. Moreover, the interaction score in [7] was 0.295; in [8], -0.617; in assay [9] it was -1.71; in [10], -1.28.
DKNQELKKENEELERKIWELKKKIQELKR [O10-bH]: the interaction score in [11] was 0.392; in assay [12], -0.919; in [13], -1.91; in assay [14], 0.177; in assay [15] it was -1.44; in assay [16], -0.726. Besides, the interaction score in assay [17] is 0.522; in assay [18] it was 0.103; in assay [19], 1.13; in assay [20] it was 0.524; in [21], 0.349; in [22], 0.0839. Besides, the interaction score in assay [23] was 0.671; in assay [24], -0.465; in [25], 0.317.
Consider DENAQLEQKIAELKQKIAELKWENAQLEQ [4H1387-bA], for which the interaction score in [26] was -0.828; in assay [27], -1.1; in [28] it was 2.02; in [29], -0.539; in [30], 1.32; in assay [31] it was 0.838.
Consider DKIQELEKEIEELKRENWELEKKIQELKR [4H2134-bH], for which the interaction score is 0.746 in assay [32]; 0.0686 in assay [33]; -0.653 in [34]; 0.0398 in assay [35]; 0.459 in [36]; 1.45 in assay [37]. Besides, the interaction score in assay [38] amounted to 1.01; in [39] it was 0.18; in assay [40] it was 1.07; in assay [41], 0.785; in [42], 1.56; in assay [43], 1.45. The interaction score in assay [44] was 0.925; in assay [45], -0.74; in [46], -0.551; in assay [47], 0.573; in assay [48] it was -0.995; in [49], 1.08. Besides, the interaction score in [50] was 0.362; in assay [51], 0.37.
With DKIKQLKQEIQRLEQENQRLEWENQKLEQ [O11-bP], the interaction score in assay [52] was -0.79; in [53] it was 0.837; in [54], -1.07; in [55], -0.129; in assay [56] it was -0.41; in assay [57] it was -1.05. The interaction score in [58] was -1.44; in assay [59] it was 0.514; in assay [60], 0.69; in [61], -0.395; in assay [62], -0.577; in assay [63] it was -1.03. Further, the figures for the interaction score in assay [64] and in [65] were -0.376 and -0.645, respectively.
